B1: HDV Ribozyme (parent)
chain: GGCCGGCAUGGUCCCAGCCUCCUCGCUGGCGCCGGCUGGGCAACAUUCCGAGGGGACCGUCCCCUCGGUAAUGGCGAAUGGGACCCA

Variants of: B1
Experiment: self-cleavage, relative activity (ratio to wild type); higher = more cleavage; co-transcriptional

Variant	self-cleavage
U27G U37G	0.391
U27G U37A	0.119
U27C G68U	0.642
G28C G81A	0.104
U27A G74C	0
G28C G29C	0.0504
G28C G34A	0.146
U27A G67U	0.799
G29A C49U	0.237
U27A G39U	0.213
G29A G50A	0.134
G29A G50U	0.241
G28C G38A	0.0415
U27G A77G	0.723
U27G G68C	0.87
C26U C44G	0.831
G28A C48G	0
G28A C48A	0.0978
U27C U69A	0.317
C26U C57A	1.22
C26U C57G	0.932
U27G G55A	0.806
U27C C86G	1.2
G28A U72C	0.101

Variant	self-cleavage
G28A U72A	0.119
G28A G50U	0.132
G28A G50A	0.0906
C26U C75G	0.287
C26U C75U	0.113
U27C C61U	0.978
U27C C61A	0.898
G29A A71G	0.032
U27C A87G	0.497
G29A C58A	0.318
U27C A78C	0.0594
G28U A42G	0.0426
G28A C66G	0.138
U27C G74A	0.193
C26U C66A	1.09
C26U G73C	0.492
G28A C85U	0.106
U27G A70U	0.519
G28A G76C	0.156
U27G G39U	0.222
U27A G31U	0.244
G28C A78U	0.0811
U27C U72A	0.396
U27C U72G	0.612

Variant	self-cleavage
G29A G52C	0.197
G29A G52U	0.153
G28A C32U	0.0845
G28A U37G	0
U27C G38C	0.123
U27A C49U	0.88
G29A A77U	0.187
C26U G38C	0.155
C26U G38A	0.0573
G29A C57G	0.267
G28C C75G	0.113
G28A U79A	0
G28U C61A	0.201
G28U G50A	0.0791
U27A A71U	0.906
C26U G28A	0.234
G28U G40C	0.215
G28U G40U	0.0277
C26U G35A	0.876
U27G C63G	0.532
G28A A87G	0.0492
U27C G35A	0.389
C26U C36U	0.975
G28U U60G	0.123

Variant	self-cleavage
U27A A43C	0.0723
U27A A43U	0.401
G29A C61G	0.107
U27A C36G	0.298
U27G G52A	1.02
U27G G52U	0.872
G28U A78U	0.0723
U27G U46G	0.462
G28U G68U	0.0386
G28U G68A	0.182
G29A C66A	0.191
U27G G74U	0.151
U27C G50U	0.628
U27C G50A	0.733
G28C U37C	0.101
G28U G29A	0.0755
U27A C58G	0.831
U27A C44U	0.482
G28U G80A	0.0681
G28C U69G	0.156
G28C U69C	0.101
G28C U69A	0.123
G28A A77C	0.119
G28U G31A	0.0554

Variant	self-cleavage
U27G C33G	0.104
U27C	0.8
U27A	0.916
U27G	0.848
G28U A77G	0.111
G28U A83G	0.0569
G28A U46G	0.0665
U27C C64G	0.652
G28C C66U	0
G28C C66A	0.122
C26U G76C	0.87
G28A C84A	0.151
U27C C33A	0
U27G C75G	0.119
U27C G73C	0.332
C26U G54C	1.03
G28U A45U	0.193
G28C U65A	0.104
G28C U65G	0.0665
G28C C32U	0.19
G28A G39U	0.0692
U27A C62U	0.935
G29A C62U	0.159
G28A A43C	0.108

Variant	self-cleavage
G28A C33G	0.149
G28A C33U	0.0234
G28A G59A	0.0573
U27G A51U	0.677
U27C A45U	0.532
G28U G81U	0.202
G28A G74C	0.0845
G28A G74U	0.0432
C26U G31A	0.819
C26U G31U	0.762
G28U C86A	0
G28U C86U	0.0594
C26U G67C	1.12
C26U G67A	0.947
C26U C84G	0.962
G28C A77G	0.119
G28C G82C	0.0475
U27C A77G	0.798
U27C C75G	0
G28A G80C	0.0396
G28A G80A	0.188
G28C G50U	0.0519
C26U U47G	0.877
U27G U60G	0.978

Variant	self-cleavage
U27A G55C	0.864
U27G C49U	0.957
C26U U65C	1.07
C26U U65G	1.02
G28C G68A	0.0475
G28A G38A	0.0647
G29A	0.186
G28U A70G	0.0707
G28U A70C	0.131
G28A G40C	0.0702
G28A G40U	0.0256
G28U C58A	0.208
G28U C58U	0.185
G28A G53U	0.0615
G28A C62U	0.134
G29A A83C	0.148
U27A A70G	0.987
G28U A51U	0.166
C26U U27C	1.29
C26U U27G	0.923
G28C C48G	0.138
U27A C41G	0.858
G28U U69G	0.208
U27C G31U	0.161

Variant	self-cleavage
U27C G31A	0.251
G28C C30U	0.0791
G28A C75A	0.121
G28C C86U	0
U27G G53A	0.923
U27G G53C	1.01
G28U G73U	0.169
U27G A43U	0.415
G28A A70C	0.0554
C26U C41G	1.02
U27G G67C	0.653
U27A C48U	0.95
C26U G80A	0.897
C26U C30U	0.967
C26U C30A	0.816
G28C A56C	0
G28U G39U	0.119
G28A C49G	0
G29A C75G	0.0346
C26U G29U	0.136
G28C G74A	0.108
G28A C41G	0.151
G28A G82C	0.0959
G28C C62G	0.0536

Variant	self-cleavage
G28C C62A	0.0346
G28U C57G	0.0773
G29A C64A	0.22
G29A C64G	0.202
G29A C44U	0.151
C26U U72G	0.721
U27G A45G	0.712
G28A C30U	0.113
G28A C30A	0.149
G28C C64G	0.0791
G29A G34C	0.148
G29A G34A	0.131
U27G C58U	0.906
G28A G68U	0.0733
G28C C85G	0.111
G28C C85U	0
U27A A83U	0.88
U27A A83G	0.723
G29A A42U	0.222
G29A A42G	0.0415
U27A G40C	0.151
G28A A45C	0.0744
U27A G54C	0.707
U27C G52C	0.764

Variant	self-cleavage
U27G G50U	0.88
U27G G50C	0.6
U27G G73C	0.0978
G28C C41A	0.0573
C26U G59A	1.08
G28A C58G	0.0369
U27C C32U	0.115
U27C C32G	0.217
U27A C75A	0.147
G28C A45U	0.142
G28U G59C	0.136
G28U G59U	0.106
U27C U37G	0.0923
U27C U37C	0.856
G28C C33G	0.0519
G29A C41A	0.0405
G29A C41U	0.25
U27G U72A	0.361
U27C C36A	0.142
U27A C33G	0.287
U27G C61G	0.86
U27G C61A	0.759
U27A U79G	0.831
U27A U79A	0.612

Variant	self-cleavage
U27G C66G	0.629
U27G C64U	0.72
G28U C32U	0.041
U27G U69A	0.959
C26U C64U	0.819
G28C A71C	0.0475
U27G C30U	0.554
U27G C30G	0.277
G28C G52A	0.119
G28U G35C	0.13
G28U G35A	0.0213
G28A C86U	0.0369
U27G A56G	1.06
U27A C85U	0.684
U27A C85A	0.957
G28C C84A	0.135
G28C C84G	0.0332
U27C A70C	0.604
G28C G67U	0
G28C G67C	0.0923
G28C G67A	0.0707
G29A A78U	0.143
G28U U37A	0.0773
U27G A42U	0.229

Variant	self-cleavage
U27G A42C	0.185
U27C G39C	0.166
U27A C84G	0.957
G28U C41A	0.138
G28U C41G	0.116
G29A G53C	0.134
G29A G53A	0.217
U27G U47C	0.383
U27A A51G	0.997
U27A G81A	0.914
G28C C58G	0.0475
G28C C58A	0.166
U27A C86U	0.966
U27A G76C	0.943
U27C G40A	0.657
U27C G40C	0.415
U27C U46A	0.529
U27A A45C	0.256
U27C A51U	0.804
C26U U37C	1.34
C26U U37G	0.346
G28C U46A	0.107
G28A C44A	0.104
G28A C44G	0

Variant	self-cleavage
U27G G34A	0.415
U27G G34C	0.0692
U27A G50A	0.967
U27A G50C	0.656
U27A G73U	0.261
U27C A42G	0
U27A G34C	0.0978
U27C G80A	0.237
U27G G81U	0.643
G28C C36U	0.145
G29A C63A	0.147
G28C G31C	0
G28C G31A	0.0739
U27C G81A	0.374
U27C G81U	0.475
U27G G29U	0.739
U27G G29C	0.733
U27A A77G	1.15
G28U C62G	0.0415
C26U A77G	0.872
C26U A77U	0.641
G28C U72A	0.151
U27A A42G	0.361
C26U U46C	0.897

Variant	self-cleavage
G28U G52A	0.0733
G28U G52U	0.211
U27A G80U	0.231
C26U C33U	0.872
C26U C33G	0.389
U27A U60G	0.59
G28C G76U	0.0378
G28U A71G	0.0554
U27C C49U	0.617
G28A G67A	0.0936
U27A G82C	0.322
G28C G54U	0.0248
G28C G54C	0.0519
C26U C85A	0.96
U27A C63A	0.95
C26U G34A	0.36
G28C A51U	0.156
G28U C75U	0.136
G28U C75G	0.0302
U27G C41G	0.802
U27G C41A	0.969
G29A C85G	0.119

— the RNAGym collection of RNA variant scans (doi:10.7554/elife.80360)
